Patent US20240132624A1 (Ablynx, published 2024)
Positions count from the first letter of the chain named.

B1: T026301049 (VHH, name in Kabat numbering)
VHH: EVQLVESGGGVVQPGGSLRLSCAASTFTFSEYDMYWVRQAPGKGLEWVSAISSGGGSTDYADSVKGRFTISRDNSKNTLYLQMNSLRPEDTALYYCAADTLYTDLTWYSYWGQGTLVTVSS
notes: tagless
B2: T026301116 (VHH, name in Kabat numbering)
VHH: B1 VHH with T26G, W107K
notes: tagless
B3: T026301095 (VHH, name in Kabat numbering)
VHH: B1 VHH with T26G, W107S
notes: tagless
B4: T026301065 (VHH, name in Kabat numbering)
VHH: B1 VHH with S53Q
notes: tagless
B5: T026301055 (VHH, name in Kabat numbering)
VHH: B1 VHH with E31S, D104S, W107K
notes: tagless
B6: T026301106 (VHH, name in Kabat numbering)
VHH: B1 VHH with E31S, S53Q, W107S
notes: tagless
B7: T026301093 (VHH, name in Kabat numbering)
VHH: B1 VHH with E31S, D104S, W107S
notes: tagless
B8: T026301066 (VHH, name in Kabat numbering)
VHH: B1 VHH with T26G, D33A, W107K
notes: tagless
B9: T026301062 (VHH, name in Kabat numbering)
VHH: B1 VHH with E31S
notes: tagless
B10: T026301101 (VHH, name in Kabat numbering)
VHH: B1 VHH with E31S, D33A, W107K
notes: tagless
B11: T026301053 (VHH, name in Kabat numbering)
VHH: B1 VHH with D104S, W107K
notes: tagless
B12: T026301108 (VHH, name in Kabat numbering)
VHH: B1 VHH with D33A, S53Q, W107S
notes: tagless
B13: T026301114 (VHH, name in Kabat numbering)
VHH: B1 VHH with D33A, W107K
notes: tagless
B14: T026301056 (VHH, name in Kabat numbering)
VHH: B1 VHH with S53Q, W107K
notes: tagless
B15: T026301092 (VHH, name in Kabat numbering)
VHH: B1 VHH with T26G, E31S, W107K
notes: tagless
B16: T026301104 (VHH, name in Kabat numbering)
VHH: B1 VHH with T26G, D33A, S53Q, W107K
notes: tagless
B17: T026301077 (VHH, name in Kabat numbering)
VHH: B1 VHH with S53Q, D104S, W107K
notes: tagless
B18: T026301068 (VHH, name in Kabat numbering)
VHH: B1 VHH with T26G, E31S, S53Q, W107K
notes: tagless
B19: T026301058 (VHH, name in Kabat numbering)
VHH: B1 VHH with D33A, S53Q, W107K
notes: tagless
B20: T026301115 (VHH, name in Kabat numbering)
VHH: B1 VHH with E31S, W107K
notes: tagless
B21: T026301083 (VHH, name in Kabat numbering)
VHH: B1 VHH with T26G, D33A, S53Q, W107S
notes: tagless
B22: T026301121 (VHH, name in Kabat numbering)
VHH: B1 VHH with S53Q, D104S
notes: tagless
B23: T026301084 (VHH, name in Kabat numbering)
VHH: B1 VHH with T26G, E31S, D33A, W107S
notes: tagless
B24: T026301097 (VHH, name in Kabat numbering)
VHH: B1 VHH with D33A, S53Q, D104S
notes: tagless
B25: T026301088 (VHH, name in Kabat numbering)
VHH: B1 VHH with T26G, E31S, D104S, W107K
notes: tagless
B26: T026301124 (VHH, name in Kabat numbering)
VHH: B1 VHH with D33A, S53Q, D104S, W107K
notes: tagless
B27: T026301126 (VHH, name in Kabat numbering)
VHH: B1 VHH with E31S, D33A, D104S, W107K
notes: tagless
B28: T026301090 (VHH, name in Kabat numbering)
VHH: B1 VHH with E31S, D33A, S53Q, D104S, W107K
notes: tagless
B29: T026301086 (VHH, name in Kabat numbering)
VHH: B1 VHH with T26G
notes: tagless
B30: T026301096 (VHH, name in Kabat numbering)
VHH: B1 VHH with T26G, E31S, D33A, S53Q, W107S
notes: tagless
B31: T026301085 (VHH, name in Kabat numbering)
VHH: B1 VHH with T26G, E31S, D33A, S53Q
notes: tagless
B32: T026301125 (VHH, name in Kabat numbering)
VHH: B1 VHH with T26G, D33A, D104S, W107K
notes: tagless
B33: T026301127 (VHH, name in Kabat numbering)
VHH: B1 VHH with D104S, W107S
notes: tagless
B34: T026301109 (VHH, name in Kabat numbering)
VHH: B1 VHH with E31S, S53Q, D104S
notes: tagless
B35: T026301128 (VHH, name in Kabat numbering)
VHH: B1 VHH with T26G, E31S, D33A, S53Q, W107K
notes: tagless
B36: T026301094 (VHH, name in Kabat numbering)
VHH: B1 VHH with S53Q, D104S, W107S
notes: tagless
B37: T026301107 (VHH, name in Kabat numbering)
VHH: B1 VHH with E31S, S53Q, D104S, W107S
notes: tagless
B38: T026301123 (VHH, name in Kabat numbering)
VHH: B1 VHH with E31S, D104S
notes: tagless
B39: T026301110 (VHH, name in Kabat numbering)
VHH: B1 VHH with T26G, D33A, S53Q
notes: tagless
B40: T026301082 (VHH, name in Kabat numbering)
VHH: B1 VHH with E31S, D33A, W107S
notes: tagless
B41: T026301113 (VHH, name in Kabat numbering)
VHH: B1 VHH with T26G, D33A, S53Q, D104S, W107K
notes: tagless
B42: T026301112 (VHH, name in Kabat numbering)
VHH: B1 VHH with T26G, S53Q, D104S, W107K
notes: tagless
B43: T026301089 (VHH, name in Kabat numbering)
VHH: B1 VHH with T26G, E31S, D33A, W107K
notes: tagless

What follows are binders tested against T1, human FcRn/b2M (human, UniProt P61769 21-119, biotinylated) (assay: SPR off-rate pH 6.0).
T1 construct: bought recombinant biotinylated protein (ACRO FCM-H82W4 or Immunitrack ITF01); also called hFcRn; hFcRn/hb2M

binding result	Binder
no binding	B1
no binding	B2
no binding	B3
no binding	B4
no binding	B5
no binding	B6
no binding	B7
no binding	B8
no binding	B9
no binding	B10
no binding	B11
no binding	B12
no binding	B13
no binding	B14
no binding	B15
no binding	B16
no binding	B17
no binding	B18
no binding	B19
no binding	B20

The binders below were run against T1, human FcRn/b2M (assay: SPR pH 6.0).

koff	Binder
0.067 s⁻¹	B21
0.0018 s⁻¹	B22
0.021 s⁻¹	B23
0.0067 s⁻¹	B24
0.0093 s⁻¹	B25
0.059 s⁻¹	B26
0.01 s⁻¹	B27
0.033 s⁻¹	B28
0.013 s⁻¹	B29
0.034 s⁻¹	B30
0.0066 s⁻¹	B31
0.0082 s⁻¹	B32
0.0095 s⁻¹	B33
0.0013 s⁻¹	B34
0.032 s⁻¹	B35
0.01 s⁻¹	B36
0.0045 s⁻¹	B37
0.0054 s⁻¹	B38
0.014 s⁻¹	B39
0.054 s⁻¹	B40
0.021 s⁻¹	B41
0.0072 s⁻¹	B42
0.028 s⁻¹	B43
